Article PMC4746701, “Crystal structure of SEL1L: Insight into the roles of SLR motifs in ERAD pathway” (Scientific Reports, 2016)
Numbering of substitutions follows the chain as printed. Names and notes keep the numbering of the source.

B1: SEL1L^cent (mouse SEL1L central domain, SLR motifs 5 to 9, residues 348–533) (domain or fragment, Mus musculus, UniProt Q9Z2G6 348-533, looked up)
chain: NSGMLEEDLIQYYQFLAEKGDVQAQVGLGQLHLHGGRGVEQNHQRAFDYFNLAANAGNSHAMAFLGKMYSEGSDIVPQSNETALHYFKKAADMGNPVGQSGLGMAYLYGRGVQVNYDLALKYFQKAAEQGWVDGQLQLGSMYYNGIGVKRDYKQALKYFNLASQGGHILAFYNLAQMHASGTGVMR
notes: Forms a homodimer (crystal, cross-linking, AUC, SEC); also called wild-type SEL1L^cent; source: purified
B2: SEL1L^cent G513A (domain or fragment, Mus musculus, UniProt Q9Z2G6 348-533, looked up)
chain: B1 chain with G166A
notes: source: purified
B3: SEL1L^cent G512A (domain or fragment, Mus musculus, UniProt Q9Z2G6 348-533, looked up)
chain: B1 chain with G165A
notes: source: purified
B4: SEL1L^cent Q460A (negative control point mutant) (domain or fragment, Mus musculus, UniProt Q9Z2G6 348-533, looked up)
chain: B1 chain with Q113A
notes: source: purified
B5: SEL1L^long (mouse SEL1L residues 337–554) (domain or fragment, Mus musculus, UniProt Q9Z2G6 337-554, looked up)
chain: RLPDEVENPGMNSGMLEEDLIQYYQFLAEKGDVQAQVGLGQLHLHGGRGVEQNHQRAFDYFNLAANAGNSHAMAFLGKMYSEGSDIVPQSNETALHYFKKAADMGNPVGQSGLGMAYLYGRGVQVNYDLALKYFQKAAEQGWVDGQLQLGSMYYNGIGVKRDYKQALKYFNLASQGGHILAFYNLAQMHASGTGVMRSCHTAVELFKNVCERGRWSER
notes: SEL1L, Mus musculus (790 amino acids), residues 337-554; also called the central region of SEL1L, residues 337–554; source: purified
B6: GST-HRD1 N-terminal luminal loop (residues 21–42) (domain or fragment, mouse, UniProt Q9DBY1 21-42, looked up)
chain: HAYYLKHQFYPTVVYLTKSSPS
notes: HRD1 E3 ubiquitin ligase, mouse, N-terminal luminal loop, residues 21-42; also called N-terminal luminal loop of HRD1; HRD1 luminal fragment GST-fusion protein; source: GST-fusion protein immobilised on glutathione sepharose 4B beads

Legend:
[1] = molecular target: the molecule itself; assay: cross-linking; glutaraldehyde (0.005%) or dimethyl suberimidate (0.3 mM), products analysed by SDS-PAGE
[2] = molecular target: the molecule itself; assay: SEC; Superdex 200; 25 mM Tris, 150 mM NaCl, 5 mM DTT, pH 7.5
[3] = molecular target: T1, MBP-SEL1L SLR-C (SLR motifs 10 and 11, residues 639–719) (Mus musculus, UniProt Q9Z2G6 639-719); assay: pull-down; 400 μg GST-HRD1 luminal fragment on glutathione sepharose 4B beads, 100 μg MBP-SEL1L protein; 150 mM NaCl, 25 mM sodium phosphate pH 7.5, 5 mM DTT; 4 °C, 15 minutes; SDS-PAGE, Coomassie; conditions: both partners purified
T1 construct: SEL1L, Mus musculus, residues 639-719 (SLR-C); source: purified; not shown: MBP, N-terminal, kept
T1 sequence (Q9Z2G6 639-719): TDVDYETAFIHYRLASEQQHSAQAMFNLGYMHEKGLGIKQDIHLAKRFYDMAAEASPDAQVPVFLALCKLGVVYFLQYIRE

Binder | stoichiometry N [1] | binding result [2] | also measured
B1 | 2 | – | –
B2 | – | binds | –
B3 | – | binds | –
B4 | – | binds | –
B5 | 2 | – | –
B6 | – | – | binding result [3]: binds
